The values below are quoted from earlier work in paper PMC4150018.

The series deals with thrombin (Bos taurus) (UniProt P00735).
UniProt P00735, sequence (P00735 318-366): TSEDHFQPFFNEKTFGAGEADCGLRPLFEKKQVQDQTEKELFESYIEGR

As a reminder, the Ki is a dissociation constant, usually derived from enzyme kinetics or from competition with a known ligand. As for “rhodniin (Kazal-type thrombin inhibitor) (from UniProt Q06684)”, the inhibition constant (Ki) is 0.2 pM.
